Laboratory results as given in publication PMC12251106, “An Organic Solvent-Tolerant α-L-Rhamnosidase from Dictyoglomus thermophilum and Its Application in Production of Icariside I from Icariin” (Molecules, 2025).

Substrate: C[C@@H]1O[C@@H](Oc2ccc([N+](=O)[O-])cc2)[C@H](O)[C@H](O)[C@H]1O
Experiment: purified protein
Assay type: biochemical, Dictyoglomus thermophilum
Conditions: 100 mM NaAc-HAc pH 6.0, 55 °C, 0.1-5 mM pNPR, 0.2 mg/mL enzyme, apparent parameters

B1: DthRha (Dictyoglomus thermophilum H-6-12) (protein)
chain: MKSSNIYSPFDLKCEFTTNPLGVDKKNPIFSWKLRHLEKNEKQTAYQVIVSSSLETINDNIGDVWDTGKVLSSEQVIKYEGKELEPCKVYFWKVRWWDSKDQESPFSVVNTFETGLMNEENWKAKWITKKEHKYEVYSPDGAPFGLNYTIAYAPMFRKSFSISKKIKRARVYIAGLGLYELYINGERIGDRVLDPGQTDYKKRVLYTVYDVSKNIRDGKNAIGVILGNGRYVKEYGYDFPKLIIQVLVEYEDDSIEWIVSDESWKTTYGPITLNSLYHGEIYDGRKEIKGWNLPDFDDSTWENAILAEPPGGKLYSEIYPPIRITKTIKPIKMWSPEPGTYVYDFGQNYTGWIKIKVRTNESGKEIRIRHAELTYEDGTLNYSTNRTALATDVYITKGEGYEEYEPRFTYHGFRYVEILGYPGVPTLEDIEGKVVHTAVESNGEFICSNELINKIHHNIIWGQLSNLMSIPTDCPQRDERMGWMGDAQLSAEEAIFNFDMIGFYRKYLNDIRDAQKENGSLSDVIPPYWSIYPGDPAWSTAYITIAWYLYQYYGDKYVLEEHYEGFKKYVEFLKKLAPDYIVSFYKYGDWCQPGTVRPKDNSGELTSTFYFYHDVITLSKIAKLLGKEADYKYYSELADKIKSAFNKKFLKEKAYASIPTELSEENVKALLEKYPEDIKDFLRQQFTILSSLGMFTSQTLNTLPLYLNLVPEDKVQDVLKTLLEDIIIRHDYHLDTGIVATRYIFDVLTSYGYDEVAYKIVNQKTYPSFGYMIEEGATTLWERWEKLTSTGMNSHNHIMFGSVDAWFYRVIAGVRVGEPGWNKIIFEPHPVGDLKYAKARLNTIKGEVEINWQKTENIFSMRISVPVNSEGEVHVPKLFERFVVKEGDNIIYEKKGDLEENEKYIVIRVGSGSYNFYMEKI
notes: 921 residues (2763 bp gene); theoretical 106 kDa, about 105 kDa on SDS-PAGE
**Q.** With B1 as the protein, how does the Km read?
**A.** Its Km is 440 µM.

**Q.** And the kcat?
**A.** Its kcat is 7.99 s⁻¹.

**Q.** And the kcat/Km?
**A.** The kcat/Km was 18200 M⁻¹ s⁻¹.
